The results in this text go back to paper doi:10.1101/2020.12.31.424868 (bioRxiv, 2020).

The target in the assay is head domain of VN/04 HA (A/Vietnam/1203/2004 H5N1), monomeric (Influenza A virus A/Vietnam/1203/2004 …, strain). The assay is described as follows: crystal structure.

B1: H5.31 Fab (recombinant) (Fab, V domains shown)
VH: EVQLVQSGGGLVQPGGSLRLSCEASRFTSSSYWITWVRQAPGKGLEWVANIKQDGSEKYFVDSVKGRFTISRDNASNSLYLQMSSLRAEDTAVYYCARGFLERLLLGRQGAYYYGMDVWGQGTTVTVSS
VL: DIVMTQSPFSLSASVGDRVTMTCRASQSISSSLNWYQQKPGKAPKLLIYAASNLQSGVPSRFSGSGSGTDFTLTISSLQPEDFATYYCQQSYTMPPELTFGGGTKVEIK
B1: the binding result is on record as “binds”.
